Reference: patent publication US20190062427A1 (Alector, published 2019)

What was measured:
[1] = target: T1, human Siglec-9 expressed on human cells (human, UniProt Q9Y336 18-463); assay: flow cytometry on human primary monocytes, 10 ug/ml mAb, PE secondary
T1 construct: Endogenous receptor on human primary monocytes, dendritic cells, macrophages, microglia, THP-1 cells and human myeloid cells of humanized mice; also called CD329
Description: (§1) Initial characterization of Siglec-9 antibodies involved determining their ability to bind Siglec-9 expressed on human primary monocytes, human primary macrophages, human primary dendritic cells, human primary neutrophils, and human primary natural killer (NK) cells. Cells were harvested, plated at 10⁶/ml in a 96 well plate, and incubated in 100ul PBS containing 2% FBS, 2 mM EDTA and 10 μg/ml Mab and Fc blocking reagent for 1 hour in ice. Cells were washed twice and incubated in 100ul PBS containing 2% FBS, 2 mM EDTA and 5 μg/ml PE-conjugated secondary antibody for 30 minutes on ice. Cells were washed twice in cold PBS and analyze by flow cytometry on a BD FACS Canto. Data analysis and calculation of MFI values was performed with FlowJo (TreeStar) software version 10.0.7.
(§2) Binding is compared to an isotype control. […] In Table 5, “Buffer” refers to cells that were treated only with the PBS buffer described supra; “Secondary Ab” refers to cells that were treated only with the PE-conjugated secondary antibody; and “mIgG1,” “mIgG2a,” and “mIgG2b” refer to isotype control antibodies.

[2] = target: T2, Siglec-9-Fc (R&D Systems, catalog number 1139-SL-050) (human, UniProt Q9Y336 18-348); assay: FACS ligand competition: 25 ug/ml mAb pre-coupled with 25 ug/ml Siglec-9-Fc, binding to sialic acid ligands on U937 cells, anti-human IgG-PE
T2 construct: Bought fusion protein; also called Siglec-9-Fc fusion protein; not shown: human IgG1 Fc
T2 sequence (Q9Y336 18-348 limits assumed): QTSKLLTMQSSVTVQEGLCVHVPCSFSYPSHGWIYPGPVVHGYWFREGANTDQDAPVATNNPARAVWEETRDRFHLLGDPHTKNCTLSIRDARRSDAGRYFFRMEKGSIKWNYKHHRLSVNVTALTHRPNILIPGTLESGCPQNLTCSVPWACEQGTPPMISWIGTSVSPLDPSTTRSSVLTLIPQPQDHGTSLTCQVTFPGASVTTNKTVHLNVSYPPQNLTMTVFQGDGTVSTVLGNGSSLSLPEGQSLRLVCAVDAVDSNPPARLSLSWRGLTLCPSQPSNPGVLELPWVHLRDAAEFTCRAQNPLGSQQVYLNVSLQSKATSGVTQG
Description: To determine whether Siglec-9 antibodies block binding to sialic acid ligands, U937 cells, which robustly express sialic acid ligands that predominantly bind to Siglec-9, were utilized in a FACS-based protocol. Briefly, 25 μg/ml Siglec-9 antibodies were pre-coupled with 25 μg/ml Siglec-9-Fc (R&D Systems, catalog number 1139-SL-050) for 20 minutes on ice in binding buffer (PBS with 0.25% BSA and 1 mM CaCl₂) in 96-well round bottom plates. […] Cells were pelleted and resuspended in goat anti-human IgG-PE (SouthernBiotech catalog number 2040-09) secondary antibody at 1:2000 dilution in binding buffer for 30 minutes. Cells were then washed three times and analyzed by flow cytometry on a BD FACS Canto. Data were analyzed on FlowJo version 10.0.6 (TreeStar).

[3] = target: T3, Histidine-tagged human Siglec-9 (NovoProtein) (human, UniProt Q9Y336 18-348); assay: SPR Biacore T200, 25 C, 25 nM mAb captured on anti-mouse IgG CM5 chip, His-tagged Siglec-9 200 nM as analyte, single-concentration 1:1 fit
T3 construct: Bought protein; also called Siglec-9-his tagged protein; His-tagged Siglec 9 antigen; not shown: histidine tag
T3 sequence (Q9Y336 18-348 limits assumed): as above

[4] = target: T1, human Siglec-9 expressed on human cells; assay: flow cytometry on human primary dendritic cells, 10 ug/ml mAb, PE secondary
Description: as §1, §2

[5] = target: T1, human Siglec-9 expressed on human cells; assay: cell-based or functional assay
[6] = target: T1, human Siglec-9 expressed on human cells; assay: flow cytometry on human primary macrophages, 10 ug/ml mAb, PE secondary
Description: as §1, §2

[7] = target: T1, human Siglec-9 expressed on human cells; assay: cell-based or functional assay; remark: listed apart in the source
[8] = target: T3, Histidine-tagged human Siglec-9 …; assay: SPR Biacore T200, 25 C, 25 nM mAb captured on anti-mouse IgG CM5 chip, His-tagged Siglec-9 100 nM as analyte, single-concentration 1:1 fit
Description: Affinity constants (KD) were calculated from the ratio kd/kₐ.

[9] = target: T3, Histidine-tagged human Siglec-9 …; assay: BLI ForteBio Octet RED96, mAb on AMC tips, His-tagged Siglec-9 3.13-50 nM; assay 2; column head prints nM but kd/ka gives M
Description: (§3) Antibodies were captured on anti-mouse IgG Fc capture (AMC) biosensor tips, after which a baseline was run for 60 seconds. A 15 minute association step was performed in a dilution series of His-tagged Siglec 9 antigen, ranging from 3.13 nM to 50 nM, after which dissociation was measured over 60 minutes. Affinity constants (KD) were calculated from the ratio kd/kₐ.

[10] = target: T3, Histidine-tagged human Siglec-9 …; assay: BLI ForteBio Octet RED96, mAb on AMC tips, His-tagged Siglec-9 3.13-50 nM; average of two assays
Description: as §3

[11] = target: T3, Histidine-tagged human Siglec-9 …; assay: BLI ForteBio Octet RED96, mAb on AMC tips, His-tagged Siglec-9 3.13-50 nM; assay 1; column head prints nM but kd/ka gives M
Description: as §3

T1 sequence (Q9Y336 18-463): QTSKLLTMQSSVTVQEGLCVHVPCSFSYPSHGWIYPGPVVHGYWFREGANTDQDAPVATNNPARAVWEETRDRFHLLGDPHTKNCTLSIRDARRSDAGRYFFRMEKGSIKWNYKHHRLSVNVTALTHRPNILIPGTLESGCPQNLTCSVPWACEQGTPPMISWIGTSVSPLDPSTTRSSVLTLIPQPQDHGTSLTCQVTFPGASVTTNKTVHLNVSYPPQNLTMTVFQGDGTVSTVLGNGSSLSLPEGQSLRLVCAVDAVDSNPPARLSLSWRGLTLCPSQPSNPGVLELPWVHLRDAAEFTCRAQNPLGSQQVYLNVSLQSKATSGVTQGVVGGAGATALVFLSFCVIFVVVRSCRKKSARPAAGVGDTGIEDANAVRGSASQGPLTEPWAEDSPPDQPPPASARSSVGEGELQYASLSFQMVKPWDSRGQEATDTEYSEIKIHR

B1: anti-Siglec-9 antibody 7H12 (antibody, V domains shown)
VH: QVQLQQSGAEVVKPGASVKLSCKAFGYTFTSYWMHWVKQRPGQGLEWIGEINPRDGVSNCNEKFTSKATLTVDTSSNTAYMQLNNLTSEDSAVYYCTIWEDYFDYWGQGTTLTVST
VL: NVZMTQTPLTLSVTLGQPASISCKSSQSLLYTNGKTYLNWLLQRPGQSPKLLIYLVSKLESGVPDRFSGSGSGTDFTLKINRVEAEDLGVYFCLQAPHFPLTFGGGTKLEMK
notes: the asterisk is not explained; the printed VL holds a 'Z' at position 3
B1 was tested, and the “% Positive” value [1] was 38.3%, the MFI [1] was 216 and the “Percent Siglec-9-Fc Binding” value [2] was 97.8%. For the same binder, the Kd [3] was 9 nM, the “% Positive” value [4] was 60.5% and the MFI [4] was 331. For the same binder, the “Percent Siglec-9 Surface Expression, Macrophages (% Siglec-9)” value [5] was 34.2%, the “Percent Siglec-9 Surface Expression, Microglia (% Siglec-9)” value [5] was 54.7% and the “% Positive” value [6] was 94.8%. The MFI [6] was 467, the “Percent Siglec-9 Surface Expression, DCs (% Siglec-9)” value [7] was 66.2% and the “Percent Siglec-9 Surface Expression, Monocytes (% Siglec-9)” value [7] was 48.4%. The “Percent Siglec-9 Surface Expression, THP-1 cells (% Siglec-9)” value [7] was 68.9%.

B2: anti-Siglec-9 antibody 5B1 (antibody, IgG1, V domains shown)
VH: QVQLQQSGAEVVKPGASVKLSCKAFGYTFTSYWMHWVKQRPGQGLEWIGEINPRDGVSNCNEKFTSKATLTVDTSSNTAYMQLNNLTSEDSAVYYCTIWEDYFDYWGQGTTLTVST
VL: NVVMTQTPLTLSVTLGQPASISCKSSQSLLYTNGKTYLNWLLQRPGQSPKLLIYLVSKLESGVPDRFSGSGSGTDFTLKINRVEAEDLGVYYCLQATHFPLTFGAGTKLELK
In the case of B2, the “% Positive” value [1] is reported as 75.9%, the MFI [1] is reported as 310 and the “Percent Siglec-9-Fc Binding” value [2] is reported as 97.8%. The “% Positive” value [4] was 97.8%, the MFI [4] was 646 and the “Percent Siglec-9 Surface Expression, Macrophages (% Siglec-9)” value [5] was 24.8%. The “Percent Siglec-9 Surface Expression, Microglia (% Siglec-9)” value [5] was 27.5%, the “% Positive” value [6] was 98.7% and the MFI [6] was 621. For the same binder, the “Percent Siglec-9 Surface Expression, DCs (% Siglec-9)” value [7] was 39.2%, the “Percent Siglec-9 Surface Expression, Monocytes (% Siglec-9)” value [7] was 31.2% and the “Percent Siglec-9 Surface Expression, THP-1 cells (% Siglec-9)” value [7] was 61.6%. The Kd [8] was 2.7 nM.

B3: anti-Siglec-9 antibody 12B12 (antibody, V domains shown)
VH: EVQLVESGGGLVQPGGSLKLSCAASGFTFSNYGMSWVRQILDKRLELVATINSNGGRTYYPDSVKGRFTISRDNAKNTLYLQMSSLRSEDTAIYYCVTYYRYDSYAMDYWGQGTSVTVSS
VL: DIVLTQSPASLAVSLGQRATISCRASENVDSYGISFMHWYQQKPGQPPKLLIYRASNLESGIPARFSGSGSRTDFTLTINPVEADDVATYYCQQSNEDPWTFGGGTKLEIK
notes: Murine antibody; also called S9-12B12; S9-12B12.2
B3 showed a Kd [9] of 0.879 nM, a Kd [10] of 0.76 nM and a Kd [11] of 0.639 nM.

B4: anti-Siglec-9 antibody 5C6 (antibody, V domains shown)
VH: EVQLQQSGPELVKPGASVRISCKASGYTFTDYNIHWVKQSQGKSLEWIGYIYPYNGDTGYNQKFQNKATLTVDNSSSTAYMELRSLTSEDSAVYYCANGNYLYYYAMDYWGQGTSVTVSS
VL: DVVMTQTPLSLPVSLGDQVSISCSSSQSLVHSNGNTYLHWYLQKSGQSPKLLIYKVSNRFSGVPDRFRGSGSGTDFTLKISRVEAEDLGVYFCSQNTHVPLTFGAGTKLELK
notes: Murine antibody; also called S9-5C6; S9-5C6.3
For B4, the Kd [9] was 0.557 nM, the Kd [10] was 0.54 nM and the Kd [11] was 0.532 nM.

B5: anti-Siglec-9 antibody 2D5 (antibody, IgG1, V domains shown)
VH: QVQLQQSGPELVKPGASVKISCKASGYAFSSYWMNWVKQRPGKGLEWIGRIYPRDGDTNYNGKFKGKATLTADKSSSTAYMQLSSLTSEDSAVYFCARWLLRFAYWGQGTLVTVSA
VL: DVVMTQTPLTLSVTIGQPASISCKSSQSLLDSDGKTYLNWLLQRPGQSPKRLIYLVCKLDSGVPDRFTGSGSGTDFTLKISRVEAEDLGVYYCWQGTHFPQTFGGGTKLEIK
For B5, the “% Positive” value [1] was 9.1%, the MFI [1] was 145 and the “Percent Siglec-9-Fc Binding” value [2] was 97.8%. For the same binder, the “% Positive” value [4] was 34.2%, the MFI [4] was 252 and the “Percent Siglec-9 Surface Expression, Macrophages (% Siglec-9)” value [5] was 94.6%. The “Percent Siglec-9 Surface Expression, Microglia (% Siglec-9)” value [5] was 90.6%, the “% Positive” value [6] was 93.2% and the MFI [6] was 692. The “Percent Siglec-9 Surface Expression, DCs (% Siglec-9)” value [7] was 94.3%, the “Percent Siglec-9 Surface Expression, Monocytes (% Siglec-9)” value [7] was 84.4% and the “Percent Siglec-9 Surface Expression, THP-1 cells (% Siglec-9)” value [7] was 81.1%. The Kd [8] was 5.1 nM.
